According to US12072338B2, “Pharmaceutical peptides for the treatment of inflammatory diseases” (PROTAGONISTS LTD., priority 2007, dated 2024):
Values joined by “and” are separate entries in the source; they are usually repeats but may differ in a detail not shown here. Equal values may be shown once.

Legend:
[1] = test system: IL-8; test: Micro-array analysis of chemokine binding peptides: IL-8; details: limit = start of the upper 75% of that peptide's response range
Experimental: (§1) (1) Printing: Chemokine (CK) solution (in water) was serially diluted with Print Reagent (GenTel BioSurfaces USA) to final concentrations of 50 μg and 25 μg/ml. BSA/BSA-Biotin control solutions (in water) were diluted with Print Reagent to 100 μg/ml. Amplified stock of M13 phage control (M13KEgIII Cloning Vector, New England Biolabs, Cat.No.E8101S) was stored in Tris Buffered Saline (TBS; pH7.5, 4° C.) and diluted with Print Reagent to the working titre (10^8 pfu/μl). An automated spotting robot (16 pin print tool, 0.4 mm head; BioRobotics, UK) was used to print the CK/BSA control/M13 control, 5 repeats per sample (CK 25 μg/ml and 50 μg/ml; BSA 100 μg/ml; M13 20 μl), on PATH Protein Microarray Slides (GenTel, Prod.No. 2-1005/-1025) at […], and 50-70% relative humidity. Printed micro-array slides were stored at Room Temperature (RT) or 4° C. for at least 24 h before use.
(§2) (2) Blocking: Block Buffer (500 μl/partition; PATHblock, GenTel, Prod.No. 2-1014) was applied to the slide for 1 hour at room temp (RT). After removal of Block Buffer, the slide was air dried for 25 minutes;
(§3) (3) Phage Presented Peptide Binding: Amplified recombinant phage stock was stored in TBS and diluted with Wash Buffer to working titer (10^7 pfu/μl). Recombinant phage suspension (300 μl) was applied per partition and incubated at RT for 1 hour with gentle agitation.
(§4) (4) First Washing: The slides were washed twice with Wash Buffer 300 μl/partition).
(§5) (5) Primary Antibody (Ab) Labeling: The slides were incubated with the Primary Ab (1 mg/ml diluted ×2500 (Wash Reagent), 300 μl; Mouse Anti-M13 monoclonal Ab; Amersham Biosciences, UK; Product Code 27-9420-01) for 45 minutes at RT.
(§6) (6) Second Washing: The slides were washed twice with Wash Buffer (300 μl/partition).
(§7) (7) Secondary Ab Labeling: The slides were incubated with Secondary Ab (1.5 mg/ml diluted ×5000 (Wash Reagent), 300 μl; Cy3-conjugated AffiniPure Goat Anti-Mouse IgG; Jackson ImmunoReserch Labs, USA; Product Code 115-165-062).
(§8) (8) Third Washing: The slides were washed twice with Wash Buffer (300 μl/partition).
(§9) (9) Rinse: the slides were rinsed twice with Rinse Buffer (PATHrinse, GenTel, Prod.No. 2-1018) then dried well.
(§10) (10) Scanning: The peptide-bound, labeled slide was scanned (Laser Intensity 80%, Gain 80%, Resolution 10 μm) with a ScanArray Life Scanner (Packard BioChip Technologies, USA).
(§11) (11) Analysis: Quantitative analysis of micro-array was performed by the SpotReader program of Niles Scientific (USA) and presented as Relative Fluorescence (RF) as a function of CK concentration. Micro-array readout (Cy3 fluorescence) was quantified to determine the relative binding affinities of a CBP for the CKs and by inference, the specificity of the CBP for binding to a CK.

[2] = biological target: T1, Mig (Homo sapiens, UniProt Q07325); test: Micro-array analysis of chemokine binding peptides: Mig; details: limit = start of the upper 75% of that peptide's response range
T1 construct: purchased 300-26
T1 sequence (Q07325 23-125): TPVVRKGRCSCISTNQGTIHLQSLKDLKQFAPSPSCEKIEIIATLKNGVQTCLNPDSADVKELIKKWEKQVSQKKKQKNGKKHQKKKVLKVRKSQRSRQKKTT
Experimental: as §1, §2, §3, §4, §5, §6, §7, §8, §9, §10, §11

[3] = biological target: T2, IP-10 (Homo sapiens, UniProt P02778); test: Micro-array analysis of chemokine binding peptides: IP-10; details: limit = start of the upper 75% of that peptide's response range
T2 construct: purchased 300-12
T2 sequence (P02778 22-98): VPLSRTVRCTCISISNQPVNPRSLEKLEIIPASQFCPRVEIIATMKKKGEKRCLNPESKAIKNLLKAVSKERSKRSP
Experimental: as §1, §2, §3, §4, §5, §6, §7, §8, §9, §10, §11

[4] = biological target: T3, MCP-2 (Homo sapiens, UniProt P80075); test: Micro-array analysis of chemokine binding peptides: MCP-2; details: limit = start of the upper 75% of that peptide's response range
T3 construct: purchased 300-15
T3 sequence (P80075 24-99): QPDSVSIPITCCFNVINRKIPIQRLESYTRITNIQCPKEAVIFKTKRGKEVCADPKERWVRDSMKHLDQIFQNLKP
Experimental: as §1, §2, §3, §4, §5, §6, §7, §8, §9, §10, §11

[5] = biological target: T4, MCP-4 (Homo sapiens, UniProt Q99616); test: Micro-array analysis of chemokine binding peptides: MCP-4; details: limit = start of the upper 75% of that peptide's response range
T4 construct: purchased 300-24
Experimental: as §1, §2, §3, §4, §5, §6, §7, §8, §9, §10, §11

[6] = biological target: T5, RANTES (Homo sapiens, UniProt P13501); test: Micro-array analysis of chemokine binding peptides: RANTES; details: limit = start of the upper 75% of that peptide's response range
T5 construct: purchased 300-06
T5 sequence (P13501 24-91): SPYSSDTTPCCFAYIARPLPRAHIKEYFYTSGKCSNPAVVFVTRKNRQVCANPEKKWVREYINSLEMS
Experimental: as §1, §2, §3, §4, §5, §6, §7, §8, §9, §10, §11

[7] = biological target: T6, Eotaxin 3 (Homo sapiens, UniProt Q9Y258); test: Micro-array analysis of chemokine binding peptides: Eotaxin 3; details: limit = start of the upper 75% of that peptide's response range
T6 construct: purchased 300-48
T6 sequence (Q9Y258 24-94): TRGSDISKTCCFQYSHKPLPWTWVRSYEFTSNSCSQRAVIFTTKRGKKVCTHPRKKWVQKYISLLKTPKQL
Experimental: as §1, §2, §3, §4, §5, §6, §7, §8, §9, §10, §11

[8] = biological target: T7, SDF1-β (Homo sapiens, UniProt P48061); test: Micro-array analysis of chemokine binding peptides: SDF1-β
T7 construct: purchased 300-28b
Experimental: as §1, §2, §3, §4, §5, §6, §7, §8, §9, §10, §11

[9] = biological target: T8, BCA-1 (Homo sapiens, UniProt O43927); test: Micro-array analysis of chemokine binding peptides: BCA-1
T8 construct: purchased 300-47
T8 sequence (O43927 23-109): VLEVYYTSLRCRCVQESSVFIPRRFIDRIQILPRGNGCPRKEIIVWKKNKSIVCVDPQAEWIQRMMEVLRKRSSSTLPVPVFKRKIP
Experimental: as §1, §2, §3, §4, §5, §6, §7, §8, §9, §10, §11

[10] = biological target: T9, TECK (Homo sapiens, UniProt O15444); test: Micro-array analysis of chemokine binding peptides: TECK
T9 construct: purchased 300-45
T9 sequence (O15444 24-150): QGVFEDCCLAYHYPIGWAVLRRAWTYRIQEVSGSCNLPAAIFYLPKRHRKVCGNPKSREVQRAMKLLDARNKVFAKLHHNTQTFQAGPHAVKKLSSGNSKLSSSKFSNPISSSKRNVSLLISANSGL
Experimental: as §1, §2, §3, §4, §5, §6, §7, §8, §9, §10, §11

[11] = biological target: T10, Fractalkine (Homo sapiens, UniProt P78423); test: Micro-array analysis of chemokine binding peptides: Fractalkine
T10 construct: purchased 300-31
T10 sequence (P78423 25-100 limits assumed): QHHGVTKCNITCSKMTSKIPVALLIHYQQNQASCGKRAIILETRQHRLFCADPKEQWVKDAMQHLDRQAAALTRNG
Experimental: as §1, §2, §3, §4, §5, §6, §7, §8, §9, §10, §11

[12] = biological target: T11, Lymphotactin (Homo sapiens, UniProt P47992); test: Micro-array analysis of chemokine binding peptides: Lymphotactin
T11 construct: purchased 300-20
T11 sequence (P47992 22-114): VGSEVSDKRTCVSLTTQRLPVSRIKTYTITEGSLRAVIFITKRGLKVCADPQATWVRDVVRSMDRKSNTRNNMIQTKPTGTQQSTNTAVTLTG
Experimental: as §1, §2, §3, §4, §5, §6, §7, §8, §9, §10, §11

[13] = biological target: T12, Exodus-2 (Homo sapiens, UniProt O00585); test: Micro-array analysis of chemokine binding peptides: Exodus-2
T12 construct: purchased 300-35
T12 sequence (O00585 24-134): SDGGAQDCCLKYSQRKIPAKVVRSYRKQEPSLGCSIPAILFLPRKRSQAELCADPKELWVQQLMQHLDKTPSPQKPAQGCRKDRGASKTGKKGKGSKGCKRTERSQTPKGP
Experimental: as §1, §2, §3, §4, §5, §6, §7, §8, §9, §10, §11

[14] = test system: Adjuvant-Induced Arthritis (AIA) rats; test: Adjuvant Induced Arthritis (AIA) rat model, Clinical Score; format: in vivo
Experimental: Peptides were tested in a rat model of AIA for their anti-inflammatory effects.
Disease Induction: AIA was induced in female Lewis rats aged 7-8 weeks by injection of heat-killed Mycobacerioum tuberculosis (Mt strain H37Ra, Difco Laboratories, USA) dispersed in incomplete Freund's adjuvant to a final concentration of 10 mg/ml (100 μl) at the base of the tail on day 0.
Measurement: Clinical Score (CS, 0-4) for each limb based on (a) joint inflammation, (b) redness, (c) deformity.
Efficacy Protocol 1 (5 rats per group). Peptide/control compound was injected intra-peritoneally (IP, 200 μl) on days 7-11 and 14-18.
Rats were sacrificed (CO2 inhalation) on day 43.
Efficacy Protocol 2 (8 rats per group). Group 1: peptide/PBS was injected intra-peritoneally (IP, 200 μl) on days 7-18; Group 2: PBS was injected IP on days 7-18; Group 3: Dexamethasone (Dexa) was injected IP on days 11 (Clinical Score (CS)1) and 13. Rats were sacrificed on day 43.
Combination Efficacy Protocol 1 (8 rats per group). Group 1: peptide injected IP on days 7-18; Group 2: PBS injected IP on days 7-18; Group 3: Dexa injected IP on day 11 (CS 1) and day 13; Group 4: Dexa injected IP on days 11 and 13 then peptide injected on days 14-22; Group 5: Dexa injected IP on days 11 and 13 then PBS injected on days 14-22.
(§12) Combination Efficacy Protocol 2 (8 rats per group). Group 1: peptide injected IP on days 7-18; Group 2: PBS injected IP on days 7-18; Group 3: Dexa injected IP on day 11 (CS 1) and day 13 then PBS on days 14-22; Group 4: PBS injected IP on days 7-10,12,14; Dexa injected on days 11, 13. Peptide injected on days 15-19.
as §12, with “Protocol 3” for “Protocol 2”, “4: peptide” for “4: PBS”
Control Reagents for Adjuvant Induced Arthritis: Anti-Inflammatory Control: Dexamethasone Sodium Phosphate (Dexacort Forte, Teva) was dissolved in Phosphate Buffer Saline (PBS, GIBCO) to a final concentration of 1 mg/ml and injected in 200 μl (200 μg).
Negative Control: Phosphate Buffer Saline (PBS).

[15] = Dexa 200 μg IP on days 11 and 13
[16] = limit = start of the upper 75% of that peptide's response range

Chain of IL-8 (P10145 28-99 limits assumed): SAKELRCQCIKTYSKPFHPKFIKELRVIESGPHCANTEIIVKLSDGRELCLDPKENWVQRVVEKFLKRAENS
T7 sequence (P48061 22-93): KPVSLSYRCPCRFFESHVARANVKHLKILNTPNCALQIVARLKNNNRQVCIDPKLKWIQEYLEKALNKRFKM
T4 sequence (Q99616 17-98): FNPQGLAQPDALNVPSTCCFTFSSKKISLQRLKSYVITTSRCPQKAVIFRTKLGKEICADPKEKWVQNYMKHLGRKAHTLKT

| binding to IL-8 with relatively high affinity (Relative Fluorescence Units) [1] | binding to Mig with relatively high affinity (Relative Fluorescence Units) [2] | binding to IP-10 with relatively high affinity (Relative Fluorescence Units) [3] | binding to MCP-2 with relatively high affinity (Relative Fluorescence Units) [4] | binding to MCP-4 with relatively high affinity (Relative Fluorescence Units) [5] | binding to RANTES with relatively high affinity (Relative Fluorescence Units) [6] | binding to Eotaxin 3 with relatively high affinity (Relative Fluorescence Units) [7] | binding to SDF1-β, stated in words [8] | binding to BCA-1, stated in words [9] | binding to TECK, stated in words [10] | binding to Fractalkine, stated in words [11] | binding to Lymphotactin, stated in words [12] | binding to Exodus-2, stated in words [13] | binding to BCA-1 with relatively high affinity (Relative Fluorescence Units) [9, 16] | binding to TECK with relatively high affinity (Relative Fluorescence Units) [10, 16] | binding to Lymphotactin with relatively high affinity (Relative Fluorescence Units) [12, 16] | Substance | day by which inflammation approached / was comparable with the disease, untreated group [14, 15] | day from which inflammation increased (onset of inflammation) [14, 15] | day until which inflammation was at the base line ([14]; Dexa IP on days 7-11 and 14-18, afterwards rose almost to the untreated, disease group) [days] |
| --- | --- | --- | --- | --- | --- | --- | --- | --- | --- | --- | --- | --- | --- | --- | --- | --- | --- | --- | --- |
| > 15,000 RFU | > 15,000 RFU | > 15,000 RFU | > 15,000 RFU | > 15,000 RFU | > 15,000 RFU | > 15,000 RFU | bound | bound | bound | bound | bound | bound |  |  |  | DYD [Ph-p33] |  |  |  |
|  |  |  |  |  |  |  |  |  |  |  |  |  |  |  |  | Dexamethasone Sodium Phosphate [reference compound] | 21 days and 28 days | 15 days and 14 days | 24 |
|  |  |  |  |  |  | > 15,000 RFU |  |  |  |  |  |  | > 15,000 RFU | > 15,000 RFU | > 15,000 RFU | GNAMCK (listed as Homo sapiens) [Ph-p8.1] |  |  |  |
